Experimental data from PMC8630071, “The NUCKS1-SKP2-p21/p27 axis controls S phase entry”.

T1: NUCKS1, dephosphorylated (UniProt Q9H1E3 1-243)
T1 sequence: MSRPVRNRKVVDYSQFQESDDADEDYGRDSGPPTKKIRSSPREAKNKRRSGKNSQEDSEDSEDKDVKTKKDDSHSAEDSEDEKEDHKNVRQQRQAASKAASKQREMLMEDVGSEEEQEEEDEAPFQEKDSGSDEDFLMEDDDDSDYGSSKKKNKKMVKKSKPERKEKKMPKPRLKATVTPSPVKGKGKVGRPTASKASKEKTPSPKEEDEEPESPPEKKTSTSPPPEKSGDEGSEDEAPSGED


Columns and labels:
NUCKS1, dephosphorylated [1] = biological target: T1, NUCKS1, dephosphorylated; assay: EMSA; lambda phosphatase treated; 10.24-2500 nM protein, 25 nM probe; text: almost 10-fold; 20 mM Tris-HCl pH 7.5, 100 mM KCl, 0.2% NP-40, 20% glycerol, 2 mM DTT, 50 ng (pure protein) or 1 ug (extract) salmon sperm DNA, 25 nM probe, 15 min at 37 C; native 6% PAGE; settings: protein: recombinant; tags: His6; label: IRDye-800; blunt
NUCKS1, dephosphorylated [2] = biological target: T1, NUCKS1, dephosphorylated; assay: competition EMSA; 100x unlabelled competitor against labelled WT probe; not outcompeted; 20 mM Tris-HCl pH 7.5, 100 mM KCl, 0.2% NP-40, 20% glycerol, 2 mM DTT, 50 ng (pure protein) or 1 ug (extract) salmon sperm DNA, 25 nM probe, 15 min at 37 C; native 6% PAGE; settings: protein: recombinant; tags: His6; blunt

Row | Binder | binding signal (NUCKS1, dephosphorylated [1]) | binding result (NUCKS1, dephosphorylated [2])
1 | SKP2 promoter WT probe (dsDNA) DNA 1: GCCGACCAGTCCCGCTCCCGCGGGGGGTTGTGGGTATCTCGAAGGCGGGTAAAGCTGCA DNA 2: TGCAGCTTTACCCGCCTTCGAGATACCCACAACCCCCCGCGGGAGCGGGACTGGTCGGC | ~10 fold higher affinity than phosphorylated NUCKS1 | –
2 | SKP2 promoter mutant probe (no GC-box), unlabelled competitor (dsDNA) DNA 1: GCCGACCAGTCCCGCTCCCGCGGGGGGTTGTGGGTATCTCGAAAAAAAATAAAGCTGCA DNA 2: TGCAGCTTTATTTTTTTTCGAGATACCCACAACCCCCCGCGGGAGCGGGACTGGTCGGC | – | no binding
